We go through four molecules from paper PMC5988292 (2018).

The chains are these.
B1: PRG-PH (non-fluorescent PH domain of PDZRhoGEF) (domain or fragment)
chain: VKQTENRHRLEGYQKRLDATALERASNPLAAEFKSLDLTTRKMIHEGPLTWRISKDKTLDLHVLLLEDLLVLLQKQDEKLLLKCHSKTAVGSSDSKQTFSPVLKLNAVLIRSVATDKRAFFIICTSKLGPPQIYELVALTSSDKNTWMELLEEAVRNATRHP
B2: PH domain from LARG (domain or fragment)
chain: KMIHEGPLVWKVNRDKTIDLYTLLLEDILVLLQKQDDRLVLRCHSKILASTADSKHTFSPVIKLSTVLVRQVATDNKALFVISMSDNGAQIYELVAQTVSEKTVWQDLICRMAA
B3: PH domain from p190RhoGEF (domain or fragment)
chain: TLLYDGLVYWKTATGRFKDILALLLTDVLLFLQEKDQKYIFAAVDQKPSVISLQKLIAREVANEERGMFLISASSAGPEMYEIHTNSKEERNNWMRRIQQAVE
B4: p115-PH (PH domain of p115RhoGEF) (domain or fragment)
chain: KLVHEGPLTWRVTKDKAVEVHVLLLDDLLLLLQRQDERLLLKSHSRTLTPTPDGKTMLRPVLRLTSAMTREVATDHKAFYVLFTWDQEAQIYELVAQTVSERKNWCALITETAG

In the experiment the target is YFP-RhoA·GTPγS (UniProt P61586 1-193). The experiment in a line: FRET; competition with CFP-PRG-PH.
Sequence of YFP-RhoA·GTPγS (P61586 whole entry): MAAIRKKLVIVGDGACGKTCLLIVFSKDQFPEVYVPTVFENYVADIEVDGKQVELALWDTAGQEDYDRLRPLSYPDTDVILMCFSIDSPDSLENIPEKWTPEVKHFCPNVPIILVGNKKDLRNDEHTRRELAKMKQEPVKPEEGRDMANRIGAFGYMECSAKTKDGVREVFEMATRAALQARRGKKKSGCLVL
By IC50 is commonly meant the concentration needed to halve the response being measured. Molecule B1 had an IC50 of 3.4 µM. With B2, the half-inhibitory concentration (IC50) came out at 10.5 µM.

Regarding B3, the half-maximal inhibitory concentration (IC50) is 7.2 µM.

For B4, the IC50 was 170 µM.
